The source of these data is patent US5403737A, “Serine protease variants having peptide ligase activity” (priority 1993, dated 1995).

This assay in a line: Esterase activity: hydrolysis of an activated ester substrate (Table III). It counts as biochemical. The settings on record: ratio of the apparent second order rate constants (kcat/KM), Sbz versus pNA substrate. On the procedure: Table III: Kinetic constants for the hydrolysis of an amide substrate (s-Ala-Ala-Pro-Phe-pNA) and for an activated ester substrate (s-Ala-Ala-Pro-Phe-Sbz). The ratio of esterase to amidase activities is the ratio of the apparent second order rate constants (kcat/KM). The aminolysis to hydrolysis ratio was investigated using the thiobenzyl ester substrate with 3.6 mM of the dipeptide Ala-Phe-amide as the nucleophile.
Kinetic Assays. The esterase and amidase activities were obtained from initial rate measurements using a Kontron Uvikon 860 spectrophotometer. The assay for esterase activity utilized the substrate s-Ala-Ala-Pro-Phe-Sbz at (25°±0.2° C.) in 100 mM Tris-HCl (pH 8.60), 4% (v/v) dimethylsulfoxide, 0.005% (v/v) Tween 80. With the non-cysteine containing proteases, DTNB (Ellman (1959), Arch. Biochem. Biophys., 82, 70-77) was added to a concentration of 37.5 μM to visualize the release of thiolbenzoate upon hydrolysis of the substrate. […] The amidase activities were measured under identical conditions by following the increase in absorbance at 412 nm upon hydrolysis of p-nitroanilide from s-Ala-Ala-Pro-Phe-pNA.

B1: wild type: wild type subtilisin (BPN') from Bacillus amyloliquefaciens (protein, UniProt P00782 108-382, looked up)
Subtilisin BPN': AQSVPYGVSQIKAPALHSQGYTGSNVKVAVIDSGIDSSHPDLKVAGGASMVPSETNPFQDNNSHGTHVAGTVAALNNSIGVLGVAPSASLYAVKVLGADGSGQYSWIINGIEWAIANNMDVINMSLGGPSGSAALKAAVDKAVASGVVVVAAAGNEGTSGSSSTVGYPGKYPSVIAVGAVDSSNQRASFSSVGPELDVMAPGVSIQSTLPGNKYGAYNGTSMASPHVAGAAALILSKHPNWTNTQVRSSLENTTTKLGDSFYYGKGLINVQAAAQ
With B1, the esterase/amidase is recorded as 4.8.
